Measured values from patent US20120028912.

Biological target: T1, HIV-1 Tat protein, wild type
T1 chain: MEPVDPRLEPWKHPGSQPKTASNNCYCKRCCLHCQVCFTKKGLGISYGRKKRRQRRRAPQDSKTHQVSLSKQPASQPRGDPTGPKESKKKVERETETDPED

B1: p300/CBP-associated factor (P/CAF), HA-tagged (protein)
chain: MSEAGGAGPGGCGAGAGAGAGPGALPPQPAALPPAPPQGSPCAAAAGGSGACGPATAVAAAGTAEGPGGGGSARIAVKKAQLRSAPRAKKLEKLGVYSACKAEESCKCNGWKNPNPSPTPPRADLQQIIVSLTESCRSCSHALAAHVSHLENVSEEEMNRLLGIVLDVEYLFTCVHKEEDADTKQVYFYLFKLLRKSILQRGKPVVEGSLEKKPPFEKPSIEQGVNNFVQYKFSHLPAKERQTIVELAKMFLNRINYWHLEAPSQRRLRSPNDDISGYKENYTRWLCYCNVPQFCDSLPRYETTQVFGRTLLRSVFTVMRRQLLEQARQEKDKLPLEKRTLILTHFPKFLSMLEEEVYSQNSPIWDQDFLSASSRTSQLGIQTVINPPPVAGTISYNSTSSSLEQPNAGSSSPACKASSGLEANPGEKRKMTDSHVLEEAKKPRVMGDIPMELINEVMSTITDPAAMLGPETNFLSAHSARDEAARLEERRGVIEFHVVGNSLNQKPNKKILMWLVGLQNVFSHQLPRMPKEYITRLVFDPKHKTLALIKDGRVIGGICFRMFPSQGFTEIVFCAVTSNEQVKGYGTHLMNHLKEYHIKHDILNFLTYADEYAIGYFKKQGFSKEIKIPKTKYVGYIKDYEGATLMGCELNPRIPYTEFSVIIKKQKEIIKKLIERKQAQIRKVYPGLSCFKDGVRQIPIESIPGIRETGWKPSGKEKSKEPRDPDQLYSTLKSILQQVKSHQSAWPFMEPVKRTEAPGYYEVIRFPMDLKTMSERLKNRYYVSKKLFMADLQRVFTNCKEYNAAESEYYKCANILEKFFFSKIKEAGLIDK
  Superinduction of Tat transactivation activity: as much as a 30-fold increase upon P/CAF stimulation
